Results on three molecules are retold here after PMC9133651, “Elucidation of physico-chemical principles of high-density lipoprotein–small RNA binding interactions”.

The series addresses apolipoprotein A-I (lipid-free) (Homo sapiens, UniProt P02647 25-267). The experiment in a line: MST; Kd only in figure; MST: 100 nM AF647 oligo (90 C 2 min, cooled) mixed 1:1 with ligand in PBS, RT, 5 min; EMSA: 1 uM AF546 oligo, UV 254 nm 15 min on ice, 4-16% NativePAGE, 0.5x TBE. Conditions: protein: native; label: 3' Alexa Fluor 647.

apolipoprotein A-I (lipid-free), sequence (P02647 25-267): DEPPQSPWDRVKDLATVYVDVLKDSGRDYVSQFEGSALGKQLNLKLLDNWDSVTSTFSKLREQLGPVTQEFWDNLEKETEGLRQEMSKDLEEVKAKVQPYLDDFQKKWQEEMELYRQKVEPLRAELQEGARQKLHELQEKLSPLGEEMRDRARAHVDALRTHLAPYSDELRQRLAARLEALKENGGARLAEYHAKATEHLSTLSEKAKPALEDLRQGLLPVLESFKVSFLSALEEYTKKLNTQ

B1: tDR-GluCTC-30 (ssRNA)
RNA: CCUGGUGGUCUAGUGGUUAGGAUUCGGCGC
As to B1, the binding result was “binds”.

B2: miR-223-3p (ssRNA)
RNA: UGUCAGUUUGUCAAAUACCCCA
B2: the binding result is “binds”.

B3: miR-375-3p (ssRNA)
RNA: UUUGUUCGUUCGGCUCGCGUGA
Consider B3, for which the binding result is on record as “binds”.
